Source: FireProtDB (doi:10.1016/j.jmb.2011.02.053)

Conditions: pH 7, Fluorescence, transition: 2, reversible: yes, whole UniProt chain shown; for denaturant midpoint (higher = more stable) / unfolding free energy: 25 °C, Urea
[1] = Aspergillus oryzae (strain ATCC 42149 / RIB 40), MOPS 30mM
[2] = Borreliella burgdorferi, Sodium phosphate 5mM

B1: Guanyl-specific ribonuclease Sa wild type, P05798 (protein)
chain: DVSGTVCLSALPPEATDTLNLIASDGPFPYSQDGVVFQNRESVLPTQSYGYYHEYTVITPGARTRGTRRIITGEATQEDYYTGDHYATFSLIDQTC
- unfolding enthalpy (calorimetric) (Kitasatospora aureofaciens, Thermal, MOPS 30mM): 92 kcal/mol

B2: Guanyl-specific ribonuclease T1 wild type, P00651 (protein)
chain: MMYSKLLTLTTLLLPTALALPSLVERACDYTCGSNCYSSSDVSTAQAAGYQLHEDGETVGSNSYPHKYNNYEGFDFSVSSPYYEWPILSSGDVYSGGSPGADRVVFNENNQLAGVITHTGASGNNFVECT
- denaturant midpoint (higher = more stable) [1]: 5.3 M
- unfolding free energy [1]: 6.4 kcal/mol

B3: Variable large protein wild type, O06878 (protein)
chain: MKKISSAILLTTFFVFINCKSQVADKDDPTNKFYQSVIQLGNGFLDVFTSFGGLVAEAFGFKSDPKKSDVKTYFTTVAAKLEKTKTDLNSLPKEKSDISSTTGKPDSTGSVGTAVEGAIKEVSELLDKLVKAVKTAEGASSGTAAIGEVVADADAAKVADKASVKGIAKGIKEIVEAAGGSEKLKAVAAAKGENNKGAGKLFGKAGAAAHGDSEAASKAAGAVSAVSGEQILSAIVTAADAAEQDGKKPEEAKNPIAAAIGDKDGGAEFGQDEMKKDDQIAAAIALRGMAKDGKFAVKDGEKEKAEGAIKGAAESAVRKVLGAITGLIGDAVSSGLRKVGDSVKAASKETPPALNK
- denaturant midpoint (higher = more stable) [2]: 1.19 M
- unfolding free energy [2]: 4.6 kcal/mol
